Biological target: microtubules (Example 3)

B1: Drosophila kinesin heavy chain fragment containing amino acids 5-351 with a C-terminal hexahistidine tag (protein)
chain: REIPAEDSIKVVCRFRPLNDSEEKAGSKFVVKFPNNVEENCISIAGKVYLFDKVFKPNASQEKVYNEAAKSIVTDVLAGYNGTIFAYGQTSSGKTHTMEGVIGDSVKQGIIPRIVNDIFNHIYAMEVNLEFHIKVSYYEIYMDKIRDLLDVSKVNLSVHEDKNRVPYVKGATERFVSSPEDVFEVIEEGKSNRHIAVTNMNEHSSRSHSVFLINVKQENLENQKKLSGKLYLVDLAGSEKVSKTGAEGTVLDEAKNINKSLSALGNVISALADGNKTHIPYRDSKLTRILQESLGGNARTTIVICCSPASFNESETKSTLDFGRRAKTVKNVVCVNEELTAEEWKRRHHHHHH
stimulation of the basal ATPase rate: 1,000-fold stimulation of the basal ATPase rate
